Data on 33 molecules can be found in US20230074436A1 (DENALI THERAPEUTICS, published 2023).

The term Kd denotes the concentration at which binding is half-saturated.

Changes are numbered by the printed parent chain.

B1: H1_1_LC2 (antibody, V domains shown)
VH: EVQLVESGGGLVQPGGSLRLSCAASGFTFSKAAMYWVRQAPGKGLELVSRIRTKPNNYATYHADSVKGRFTISRDNSKNTLYLQMNSLRAEDTAVYYCTADMATGDYWGQGTLVTVSS
VL: DIQMTQSPSSLSASVGDRVTITCKASQNINKNLDWYQQKPGKAPKPLIYSTNNLQTGVPSRFSGSGSGTDFTLTISSLQPEDFATYYCYQYKSAWTFGQGTKVEIK
B2: H3_5_LC2 (antibody, V domains shown)
VH: B1 VH with K31N, M102F, T104R
VL: B1 VL
B3: HC2_L3_11 (antibody, V domains shown)
VH: B1 VH with K31N
VL: B1 VL with S93F
B4: H2_5_LC2 (antibody, V domains shown)
VH: B1 VH with K31N, K54E
VL: B1 VL
B5: HC2_L2_1 (antibody, V domains shown)
VH: B1 VH with K31N
VL: B1 VL with N53K, Q55K
B6: H1_2_LC2 (antibody, V domains shown)
VH: B1 VH with T28R
VL: B1 VL
B7: H3_6_LC2 (antibody, V domains shown)
VH: B1 VH with K31N, D101N, A103R, T104K
VL: B1 VL
B8: H3_1_LC2 (antibody, V domains shown)
VH: B1 VH with K31N, D101N
VL: B1 VL
B9: HC2_L3_2 (antibody, V domains shown)
VH: B1 VH with K31N
VL: B1 VL with Y91D, S93R, A94G
B10: HC2_L3_1 (antibody, V domains shown)
VH: B1 VH with K31N
VL: B1 VL with Y91D, S93N, A94G
B11: H2_3_LC2 (antibody, V domains shown)
VH: B1 VH with K31N, K54E, P55R
VL: B1 VL
B12: H2_2_LC2 (antibody, V domains shown)
VH: B1 VH with K31N, K54Q, P55R
VL: B1 VL
B13: H1_6_LC2 (antibody, V domains shown)
VH: B1 VH with T28N
VL: B1 VL
B14: HC2_L3_7 (antibody, V domains shown)
VH: B1 VH with K31N
VL: B1 VL with S93N, A94G
B15: HC2_L3_10 (antibody, V domains shown)
VH: B1 VH with K31N
VL: B1 VL with S93L
B16: HC2_L3_6 (antibody, V domains shown)
VH: B1 VH with K31N
VL: B1 VL with S93K
B17: H1_3_LC2 (antibody, V domains shown)
VH: B1 VH with K31R
VL: B1 VL
B18: HC2_L3_4 (antibody, V domains shown)
VH: B1 VH with K31N
VL: B1 VL with Y91D, A94G
B19: H1_5_LC2 (antibody, V domains shown)
VH: B1 VH with T28K
VL: B1 VL
B20: H3_4_LC2 (antibody, V domains shown)
VH: B1 VH with K31N, T99S, M102F, T104K
VL: B1 VL
B21: H2_6_LC2 (antibody, V domains shown)
VH: B1 VH with K31N, N56K
VL: B1 VL
B22: HC2_L3_9 (antibody, V domains shown)
VH: B1 VH with K31N
VL: B1 VL with S93Y
B23: H3_3_LC2 (antibody, V domains shown)
VH: B1 VH with K31N, T99A, D101A, T104R
VL: B1 VL
B24: H2_4_LC2 (antibody, V domains shown)
VH: B1 VH with K31N, P55R
VL: B1 VL
B25: HC2_L3_3 (antibody, V domains shown)
VH: B1 VH with K31N
VL: B1 VL with Y91D, S93K, A94G
B26: HC2_L3_5 (antibody, V domains shown)
VH: B1 VH with K31N
VL: B1 VL with S93N
B27: H1_4_LC2 (antibody, V domains shown)
VH: B1 VH with S30N
VL: B1 VL
B28: H3_2_LC2 (antibody, V domains shown)
VH: B1 VH with K31N, D101N, T104K
VL: B1 VL
B29: HC2_L2_2 (antibody, V domains shown)
VH: B1 VH with K31N
VL: B1 VL with S12K, A13S, S50R, N52K
B30: HC2_L3_8 (antibody, V domains shown)
VH: B1 VH with K31N
VL: B1 VL with Y91F, S93K
B31: HC2_L1_2 (antibody, V domains shown)
VH: B1 VH with K31N
VL: B1 VL with N28I, K31Q, N32I
B32: H2_1_LC2 (antibody, V domains shown)
VH: B1 VH with K31N, Y58F
VL: B1 VL
B33: HC2_L1_1 (antibody, V domains shown)
VH: B1 VH with K31N
VL: B1 VL with K31N, Q55K

This experiment deals with human alpha-synuclein monomer (human, UniProt P37840 1-140). As to the kind of experiment: SPR (Biacore 8K), IgG captured on anti-human Fc, aSyn monomer injected.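 Further: aSyn injected as a dilution series, signal corrected against a reference cell holding an irrelevant IgG, Kd from one-to-one Langmuir kinetic fitting of kon and koff.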 Background: SPR reads the build-up and loss of mass on a sensor chip optically.
Experimental: Serial 3-fold dilutions of aSyn were injected at a flow rate of 30 μL/min. Each sample was analyzed using a 3-minute association and a 10-minute dissociation. After each injection, the chip was regenerated using 3 M MgCl₂. Binding response was corrected by subtracting the RU from a flow cell capturing an irrelevant IgG at similar density. A 1:1 Languir model of simultaneous fitting of kₒₙ and koff was used for kinetics analysis.
For the molecule B1, the Kd was found to be 3.46 nM.
Molecule B2 came in with a dissociation constant (Kd) of 3.84 nM.
To B3 belongs 3.4 nM.
On to B4, for which binding was put at a Kd of 5.5 nM.
B5 registered a Kd of 1.78 nM.
B6 gave a dissociation constant (Kd) of 3.53 nM.
Take B7: the Kd was 10.3 nM.
For B8, the Kd is 4.79 nM.
For B9, the dissociation constant (Kd) is 4.52 nM.
To B10 belongs 4.2 nM; to B11, 4.76 nM.
With B12, the dissociation constant Kd came to 5.93 nM.
Molecule B13 displayed a Kd of 3.91 nM.
Molecule B14 had an equilibrium dissociation constant (Kd) of 4.59 nM.
Consider B15, for which the dissociation constant Kd was 2.93 nM.
With B16, the dissociation constant (Kd) was determined as 3.28 nM.
In turn, B17 gave a Kd of 4.04 nM.
In the case of B18, the Kd is 2.84 nM.
Take B19: the affinity, expressed as Kd, was 4.61 nM.
As for B20, the Kd came to 4.64 nM.
In the case of B21 it was 7.75 nM; in that of B22, 2.98 nM; in that of B23, 5.3 nM.
Take B24: the Kd turned out to be 8.35 nM.
In the case of B25 it was 5.28 nM; in that of B26, 3.24 nM; in that of B27, 3.55 nM.
To B28 belongs 4.92 nM; to B29, 2.01 nM; to B30, 3.01 nM.
To B31 belongs 2.45 nM.
Molecule B32 yielded a Kd of 6.18 nM.
B33 had a Kd of 1.2 nM.
